Source: patent publication US20250066451A1

Key:
[1] = target: human IL-1R-I on Normal Human Dermal Fibroblasts (NHDF) cells (human) (UniProt P14778); test: cell-based or functional assay
[2] = target: IL-1R-I on cells (TF-1 cells, NHDF cells, human whole blood) (human) (UniProt P14778); test: cell-based or functional assay
Chain of IL-1R-I on cells (TF-1 cells, NHDF cells, human whole blood) (human) (P14778 18-569): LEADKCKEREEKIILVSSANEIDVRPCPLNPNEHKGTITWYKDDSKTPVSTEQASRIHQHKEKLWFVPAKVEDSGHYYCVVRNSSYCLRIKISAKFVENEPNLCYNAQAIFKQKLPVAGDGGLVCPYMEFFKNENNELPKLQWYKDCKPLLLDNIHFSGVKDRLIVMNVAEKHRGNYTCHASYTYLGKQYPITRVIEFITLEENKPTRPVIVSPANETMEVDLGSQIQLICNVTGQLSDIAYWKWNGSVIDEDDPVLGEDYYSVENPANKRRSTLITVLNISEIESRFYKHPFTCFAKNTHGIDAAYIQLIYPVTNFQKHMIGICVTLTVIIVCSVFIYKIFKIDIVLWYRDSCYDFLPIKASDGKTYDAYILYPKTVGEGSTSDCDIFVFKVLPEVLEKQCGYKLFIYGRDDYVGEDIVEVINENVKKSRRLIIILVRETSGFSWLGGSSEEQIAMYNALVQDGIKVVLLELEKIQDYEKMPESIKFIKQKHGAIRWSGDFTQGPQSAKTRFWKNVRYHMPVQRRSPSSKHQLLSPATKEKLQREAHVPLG

Chain of human IL-1R-I on Normal Human Dermal Fibroblasts (NHDF) cells (human) (P14778 18-569): as above

Substance | IC50 (pM), inhibition of IL-1B induced IL-6 release in NHDF cells [1] | IC50, inhibition of IL-1B induced proliferation of TF-1 cells [2] | median IC50, IL-1B induced IL-6 release in human whole blood [2] | median IC50, IL-1B induced IL-6 release in human whole blood (legend of FIG. 3) [2]
anakinra (from UniProt P18510 26-177) (ligand) | 70 pM |  |  | 
anakinra (Kineret, Sobi) (from UniProt P18510 26-177) (ligand) |  | 0.05 nM | 0.31 nM | 0.3 nM
